What was measured:
[1] = molecular target: eIF5B Domain-4 (eIF5B-D4) (human); experiment: fluorescence polarisation
[2] = molecular target: eIF5B-D34 (eIF5B domains D3 and D4) (human); experiment: fluorescence polarisation
[3] = molecular target: eIF1AΔC (eIF1A missing the entire 26-residue C-terminal tail) (human); experiment: NMR titration
[4] = molecular target: fluorescein-labeled synthetic eIF1A-CT7 peptide (human); experiment: fluorescence polarisation

eIF5B-D34 (eIF5B domains D3 and D4) (human), sequence (O60841 whole entry, the tested form may be a part): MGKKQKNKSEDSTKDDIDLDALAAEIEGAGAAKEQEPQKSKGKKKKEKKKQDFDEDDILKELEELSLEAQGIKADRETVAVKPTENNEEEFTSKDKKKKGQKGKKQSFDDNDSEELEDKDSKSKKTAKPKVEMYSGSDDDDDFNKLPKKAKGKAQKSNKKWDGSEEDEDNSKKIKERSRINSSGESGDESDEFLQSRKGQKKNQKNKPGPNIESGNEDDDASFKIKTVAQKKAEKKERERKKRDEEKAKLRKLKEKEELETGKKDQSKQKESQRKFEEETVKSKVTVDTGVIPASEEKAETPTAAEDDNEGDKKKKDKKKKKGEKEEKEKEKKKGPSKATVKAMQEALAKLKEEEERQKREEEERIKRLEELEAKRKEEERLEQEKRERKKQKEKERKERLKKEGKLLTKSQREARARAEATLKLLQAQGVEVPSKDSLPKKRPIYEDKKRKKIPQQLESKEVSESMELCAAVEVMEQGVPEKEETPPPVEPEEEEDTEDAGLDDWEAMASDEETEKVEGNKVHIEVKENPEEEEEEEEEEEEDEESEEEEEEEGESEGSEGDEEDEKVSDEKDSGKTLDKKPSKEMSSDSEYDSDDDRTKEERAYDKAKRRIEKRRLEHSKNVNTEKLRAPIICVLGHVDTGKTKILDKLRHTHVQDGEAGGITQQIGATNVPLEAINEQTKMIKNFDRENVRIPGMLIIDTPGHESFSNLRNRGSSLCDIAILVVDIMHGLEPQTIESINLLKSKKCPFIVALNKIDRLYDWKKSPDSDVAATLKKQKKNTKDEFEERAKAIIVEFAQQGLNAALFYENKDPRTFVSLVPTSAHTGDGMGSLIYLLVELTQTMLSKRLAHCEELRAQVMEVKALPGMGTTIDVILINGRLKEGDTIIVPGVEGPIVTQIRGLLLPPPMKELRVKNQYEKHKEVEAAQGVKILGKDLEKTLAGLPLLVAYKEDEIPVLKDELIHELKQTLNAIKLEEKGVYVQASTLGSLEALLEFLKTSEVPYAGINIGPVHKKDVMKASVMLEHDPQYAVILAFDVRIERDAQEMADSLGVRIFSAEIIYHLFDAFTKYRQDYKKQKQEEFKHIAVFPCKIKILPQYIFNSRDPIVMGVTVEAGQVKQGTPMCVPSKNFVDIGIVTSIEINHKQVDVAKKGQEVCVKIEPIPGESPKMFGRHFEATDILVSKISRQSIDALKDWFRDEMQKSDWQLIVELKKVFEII
eIF5B Domain-4 (eIF5B-D4) (human), sequence (O60841 whole entry, the tested form may be a part): as above

For “eIF1A C-terminal tail (eIF1A-CTT), 26 residues (peptide)”, the Kd [1] was 12 µM and the Kd [2] was 18 µM.
With “eIF5B Domain-3 (eIF5B-D3) (domain or fragment)” the Kd [3] was less than 1 mM.
“eukaryotic translation initiation factor 1A (eIF1A), full-length (from UniProt P47813 1-144) (natural protein)” was tested, and the Kd [1] was 39 µM and the Kd [2] was 41 µM.
“eIF1A-CT16 (the 16 C-terminal residues in eIF1A) (peptide)” was tested, and the Kd [1] was 12 µM and the Kd [2] was 23 µM.
“eIF5B-D34 (eIF5B domains D3 and D4) (domain or fragment)” gave a Kd [4] of 27 µM.
For “eIF5B Domain-4 (eIF5B-D4) (domain or fragment)”, the Kd [4] was 12 µM.
